Changes are numbered by the printed parent chain.
B1: HFKB (antibody, human IgG1, V domains shown)
VH: EVQLVESGGGLVQPGGSLRLSCAASGFSLTIYGAHWVRQAPGKGLEWVSVIWAGGSTNYNSALMSRLTISKDNSKNTVYLQMNSLRAEDTAVYYCARDGSSPYYYSMEYWGQGTTVTVSS
VL: EIILTQSPATLSLSPGERATLSCSATSSVSYMHWFQQKPGQAPRLWIYSTSNLASGVPARFSGSGSGTDYTLTISSLEPEDFAVYYCQQRSSYPFTFGPGTKLDIK
notes: human IgG1/kappa
B2: HFKC (antibody, human IgG1, V domains shown)
VH: B1 VH
VL: B1 VL with W46L, V57I, Y70F
notes: human IgG1/kappa
B3: HFKD (antibody, human IgG1, V domains shown)
VH: B1 VH
VL: B1 VL with I3V, V57I, Y70F
notes: human IgG1/kappa
B4: HFKE (antibody, human IgG1, V domains shown)
VH: B1 VH
VL: B1 VL with I3V, W46L, Y70F
notes: human IgG1/kappa
B5: HFKF (antibody, human IgG1, V domains shown)
VH: B1 VH
VL: B1 VL with I3V, W46L, V57I
notes: human IgG1/kappa
B6: HFKFmut (antibody, human IgG1, V domains shown)
VH: B1 VH
VL: B1 VL with I3V, W46L, V57I, F95Y
notes: human IgG1/kappa
B7: HFKG (antibody, human IgG1, V domains shown)
VH: B1 VH
VL: B1 VL with I3V, F35Y, W46L, V57I, Y70F
notes: human IgG1/kappa
B8: HGKA (antibody, human IgG1, V domains shown)
VH: B1 VH with L67F, T68S
VL: B1 VL with I3V, W46L, V57I, Y70F
notes: human IgG1/kappa
B9: HGKB (antibody, human IgG1, V domains shown)
VH: B1 VH with L67F, T68S
VL: B1 VL
notes: human IgG1/kappa
B10: HGKC (antibody, human IgG1, V domains shown)
VH: B1 VH with L67F, T68S
VL: B1 VL with W46L, V57I, Y70F
notes: human IgG1/kappa
B11: HGKD (antibody, human IgG1, V domains shown)
VH: B1 VH with L67F, T68S
VL: B1 VL with I3V, V57I, Y70F
notes: human IgG1/kappa
B12: HGKE (antibody, human IgG1, V domains shown)
VH: B1 VH with L67F, T68S
VL: B1 VL with I3V, W46L, Y70F
notes: human IgG1/kappa
B13: HGKF (antibody, human IgG1, V domains shown)
VH: B1 VH with L67F, T68S
VL: B1 VL with I3V, W46L, V57I
notes: human IgG1/kappa
B14: HGKFmut (antibody, human IgG1, V domains shown)
VH: B1 VH with L67F, T68S
VL: B1 VL with I3V, W46L, V57I, F95Y
notes: human IgG1/kappa
B15: HGKG (antibody, human IgG1, V domains shown)
VH: B1 VH with L67F, T68S
VL: B1 VL with I3V, F35Y, W46L, V57I, Y70F
notes: human IgG1/kappa; also called HGHG
B16: RHE E-DKA (antibody, human IgG1, V domains shown)
VH: B1 VH with S49G, L67F, E108D
VL: B1 VL with I3V, W46L, V57I, Y70F
notes: human IgG1/kappa
B17: RHE E-DKB (antibody, human IgG1, V domains shown)
VH: B1 VH with S49G, L67F, E108D
VL: B1 VL
notes: human IgG1/kappa
B18: RHE E-DKC (antibody, human IgG1, V domains shown)
VH: B1 VH with S49G, L67F, E108D
VL: B1 VL with W46L, V57I, Y70F
notes: human IgG1/kappa

The binders below were run against T1, recombinant human Siglec-8 extracellular domain (ECD) (human, UniProt Q9NYZ4 17-363) (assay: ELISA, coated Siglec-8 ECD).
T1 construct: extracellular domain; also called Siglec-8 ECD; full Siglec-8 ECD
T1 sequence (Q9NYZ4 17-363): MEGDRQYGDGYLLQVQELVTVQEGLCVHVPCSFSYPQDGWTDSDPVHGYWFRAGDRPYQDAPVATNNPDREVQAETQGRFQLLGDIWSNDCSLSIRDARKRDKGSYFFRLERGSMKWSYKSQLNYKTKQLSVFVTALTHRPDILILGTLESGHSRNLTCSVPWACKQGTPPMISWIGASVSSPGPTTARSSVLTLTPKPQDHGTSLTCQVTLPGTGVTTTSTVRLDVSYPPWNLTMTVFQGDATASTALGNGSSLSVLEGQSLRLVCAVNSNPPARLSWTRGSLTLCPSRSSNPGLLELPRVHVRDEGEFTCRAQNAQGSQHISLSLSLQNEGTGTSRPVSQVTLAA
Experimental: Binding of recombinant human Siglec-8 extracellular domain (ECD) by chimeric 2E2 and chimeric 2C4 IgG1K antibodies was measured by ELISA. […] Three-fold serial dilutions of a chimeric antibody (ch2E2 or ch2C4) or mouse antibody (m2E2 or m2C4) in 0.2% BSA/TBS (starting concentration was 5000 ng/mL) was added to each coated well. The plate was incubated for 2 hours at room temperature and the wells were subsequently washed before addition of goat-anti-human Fc peroxidase conjugate (1:10000 dilution) or anti-mouse Fc peroxidase conjugate (1:30000 dilution) diluted in 0.2% BSA/TBS solution. The plate was incubated for 45 minutes at room temperature, followed by washing and addition of 30 μL K-blue HRP substrate (SkyBio Ltd) to each well. After incubation at room temperature for 15 minutes, the reaction was stopped by adding 10 μL of Red Stop solution (SkyBio Ltd) to each well. The optical density or the experimental samples was read at 650 nm using the ELISA reader PHERAStar FS (BMG Labtech).
The fully humanized antibody heavy and light chains were combined and compared with the chimeric antibody to determine if replacing the 4 Å and canonical framework residues and interface residues was sufficient to successfully humanize 2E2. Expi293 cells were co-transfected with combinations of different humanized light chain vectors in association with different humanized heavy chain vectors. Siglec-8 antigen was used to measure antibody binding by ELISA as described in Example 1.
Work on B1 yielded an EC50 of 0.099 nM. Binder B2 has an EC50 of 0.063 nM. B3 was tested, and the EC50 was 0.058 nM. For B4, the EC50 was 0.104 nM. For B5, the EC50 was 0.118 nM. In the case of B6, the EC50 is reported as 0.057 nM. For B7, the EC50 was 0.355 nM. Work on B8 yielded an EC50 of 0.061 nM. Binder B9 has an EC50 of 0.134 nM. For B10, the EC50 was 0.065 nM. In the case of B11, the EC50 is reported as 0.047 nM. Work on B12 yielded an EC50 of 0.116 nM. With B13 the EC50 was 0.088 nM. Binder B14 has an EC50 of 0.062 nM. For B15, the EC50 was 0.254 nM. B16 was tested, and the EC50 was 0.388 nM. Binder B17 has an EC50 of 0.289 nM. B18 was tested, and the EC50 was 0.516 nM.

— patent US20200054723A1 (ALLAKOS, published 2020)
